As a reminder, the EC50 is the concentration at which the effect is half-maximal. The low end stands for greater potency, the high end for weaker potency. One may read the Kd as a measure of binding affinity in units of concentration. A high value points to lower affinity. In general, koff refers to the rate constant with which the complex falls apart. The low end stands for a long-lived complex, the high end for a short-lived complex. One may read the kon as the second-order rate constant of association. Broadly, the IC50 is the concentration needed to halve the response being measured.

The record followed here is US20210095028A1 (NANJING LEGEND BIOTECH, published 2021).

Changes are numbered by the printed parent chain.

T1: human TIGIT over-expressed on cells (human, UniProt Q495A1 22-244)
T1 sequence: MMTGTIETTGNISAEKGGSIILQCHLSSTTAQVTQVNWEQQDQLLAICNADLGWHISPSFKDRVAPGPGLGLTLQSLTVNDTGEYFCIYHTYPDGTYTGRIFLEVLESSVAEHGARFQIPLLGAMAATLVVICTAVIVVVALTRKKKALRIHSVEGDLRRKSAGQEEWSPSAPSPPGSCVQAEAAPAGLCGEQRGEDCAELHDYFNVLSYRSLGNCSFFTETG

T2: Human TIGIT protein with HIS tag (human, UniProt Q495A1 22-141)
T2 construct: A soluble analyte is probably only the extracellular part; also called human TIGIT recombinant protein; not shown: HIS tag
T2 sequence: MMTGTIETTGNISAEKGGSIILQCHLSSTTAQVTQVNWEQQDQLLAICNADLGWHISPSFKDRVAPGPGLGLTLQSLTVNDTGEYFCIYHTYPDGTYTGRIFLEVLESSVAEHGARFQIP

B1: 100C4E7D11 (antibody, V domains shown)
VH: EVMLVESGGGLVKPGGSLKLSCAASGFTFSFYTMSWVRQTPEKRLEWVATISSGGGSTYYSDSVKGRFTISRDNAKNNLYLQMTSLRSEDTALYYCSRSLPVDYWGQGTTLTVSS
VL: QIVLTQSPAIMSASLGERVTMTCTASSSVSSTYLHWYQQKPGSSPKLWIYSTSNLASGVPARFSGSGSGTSYSLTISSMEAEDAATYYCHLYHHSPYTFGGGTKLEIK
notes: Mouse monoclonal antibody; also called mouse anti-human TIGIT monoclonal antibody 100C4E7D11
B2: 128E3G7F5 (antibody, V domains shown)
VH: EVLLQQSGPELVKTGASVKISCKASGYSFTAYYMHWVKQSHGKSLEWIGYISCYNGATTYNQKFKGKATFTVDTSSTTAYMQFNSLTSEDSAVYYCARRVYYGYDEALVYWGQGTSVTVSS
VL: DIVMTQSPSSLSVSAGEKVTMTCKSSQSLLNSGNQKNYLAWYQQKPGQPPKLLIYGASTRGSGVPDRFTGSGSGTDFTLTISSVQAEDLAVYYCQNDHSYPYTFGGGTKLEIK
notes: Mouse monoclonal antibody; also called mouse anti-human TIGIT monoclonal antibody 128E3G7F5
B3: 11D8E12A4 (antibody, V domains shown)
VH: EVLLQQSGPELVKPGASVKIPCKASGYTFTDYNMDWVKQSHGKSLEWIGDINPNNGGTIYNQKFKGKATLTVDKSSSTAYMELRSLTSEDTAVYYCARRWLLLVYTMDYWGQGTSVTVSS
VL: QIVLTQSPAIMSASPGEKVTISCSASSSVSYMYWYQQKPGSSPKPWIYRTSNLASGVPARFSGSGSGTSYSLTISSMEAEDAATYYCHQYHNYPPTFGGGTKLEIK
notes: Mouse monoclonal antibody; also called mouse anti-human TIGIT monoclonal antibody 11D8E12A4
B4: 16F10H12C11 (antibody, V domains shown)
VH: B3 VH with M34I, N55T, T106A, M107V
VL: B3 VL with S30T, P39A, S62G, H88Q, N92S, Y93F
notes: Mouse monoclonal antibody; also called mouse anti-human TIGIT monoclonal antibody 16F10H12C11
B5: 48B5G4E12 (antibody, V domains shown)
VH: QVQLQQPGAELVKPGASVKMSCKASGYTFTSYNMHWVKQTPGQGLEWIGGIYPGNGATSYNQKFKGKATLTADKSSSTAYMQLSSLTSEDSAVYYCARSGLRAMDYWGQGTSVTVSS
VL: QIVLTQSPAIMSASPGEKVTMTCSASSSVSYMYWYQQKTGSSPRLLIYDTSNLASGVPVRFSGSGSGTSYSLTISRMEAEDAATYYCQQWSSYPYTFGGGTKLEIK
notes: Mouse monoclonal antibody; also called mouse anti-human TIGIT monoclonal antibody 48B5G4E12
B6: 139E2C2D2 (antibody, V domains shown)
VH: EVQLVESGGDLVKPGGSLKLSCAASGFTFSSYGMSWVRQTPDKRLEWVAIISSGGNYTYYPDSVKGRFTISRDNAKNTLYLQMSSLKSEDTAMYYCARQIHYFFAMDYWGQGTSVTVSS
VL: DIQMTQSPASLSVSVGETVTITCRASENIYSNLAWYQQKQGKSPQLLVYAATNLADGAPSRFSGSRSGTQYSLKINSLQSEDFGSYYCQHFWGTAYTFGGGTKLEIK
notes: Mouse monoclonal antibody; also called mouse anti-human TIGIT monoclonal antibody 139E2C2D2
B7: 8F2D8E7 (antibody, V domains shown)
VH: QVQLQQSGAELVKPGASVKLSCKTSGYTFTSYWIQWIKQRPGQGLGWIGEIFPGTGTTYYNEKFKGKATLTIDTSSSTAYMQLSSLTSEDSAVYSCARSRDGKVVDYWGQGTSVTVSS
VL: DVQMTQTTSSLSASLGDRVTISCRASQDISNFLNWYQQRPDGTVKLLIYYTSKLHSGVPSRFSGSGSGTDYSLTIRNLEKEDIATYFCQQGNTPPYTFGGGTKLEIK
notes: Mouse monoclonal antibody; also called mouse anti-human TIGIT monoclonal antibody 8F2D8E7
B8: 70A11A8E6 (antibody, V domains shown)
VH: DVQLQESGPGLVKPSQSLSLTCTVTGYSITSDYAWNWIRQFPGNKLEWMGYIIYSGSTSYNPSLKSRISITRDTSKNQFFLQLNSVTTEDTATYYCARGWFRRPDYWGQGTTLTVSS
VL: DIVMTQSHEFMSTSLGDRVSITCKASQDVSTAVAWHQQKPGQSPKQLIYSASYRYTGVPDRFTGSGSGTDFTFTISNMQAEDLAVYYCQQHYSVPLTFGAGTKLELK
notes: Mouse monoclonal antibody; also called mouse anti-human TIGIT monoclonal antibody 70A11A8E6

T3 sequence (A0A7N9I9V4 entry or part of it): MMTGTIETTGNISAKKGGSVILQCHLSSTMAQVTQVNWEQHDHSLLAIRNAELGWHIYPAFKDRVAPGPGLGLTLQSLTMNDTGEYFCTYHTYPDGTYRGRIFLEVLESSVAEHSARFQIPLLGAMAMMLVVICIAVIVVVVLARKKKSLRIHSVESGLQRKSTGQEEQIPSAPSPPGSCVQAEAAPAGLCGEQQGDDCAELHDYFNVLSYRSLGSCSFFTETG

One assay has as its target T1, human TIGIT over-expressed on cells. Description: cell-based or functional assay.
With B1, the “luciferase signal in T cell activation, Bottom (best-fit)” value is 11.6; the “luciferase signal in T cell activation, EC50” value was determined as 3.46 nM; the “luciferase signal in T cell activation, Top (best-fit)” value came out at 117.

As to B2, the “luciferase signal in T cell activation, Bottom (best-fit)” value worked out at 4.5; the “luciferase signal in T cell activation, EC50” value was 8.54 nM; the “luciferase signal in T cell activation, Top (best-fit)” value came out at 99.

For a further assay the target is unchanged. Description: cell-based or functional assay. This is another data set of the same source.
Regarding B1, the “IL-2 secretion in T cell activation, Bottom (best-fit)” value was found to be 107; the “IL-2 secretion in T cell activation, EC50” value was 0.98 nM; the “IL-2 secretion in T cell activation, Top (best-fit)” value was found to be 191.

Another assay has the same target. Description: FACS, CHO-K1 cells over-expressing human TIGIT. The protocol: (§1) The mixture was equilibrated for 30 minutes at room temperature and washed three times with FACS buffer (PBS containing 1% BSA). iFluor labeled goat anti-mouse IgG as the secondary antibody was added and incubated at room temperature for 45 min. Finally, the cells were washed 3 time with PBS, and the signal was read by FACS BD Calibur. Data was analyzed with PRISM™ (GraphPad Software, San Diego, Calif.) using non-linear regression and EC₅₀ values were calculated.
(In general: A flow cytometer gives signals particle by particle.)
Take B3: the “Bottom (best-fit)” value came to 8.3, the half-maximal effective concentration (EC50) worked out at 16.3 nM and the “Top (best-fit)” value came out at 159.

Consider B4, for which the “Bottom (best-fit)” value stood at 6.83, the half-maximal effective concentration (EC50) came to 11.2 nM and the “Top (best-fit)” value stood at 188.

In the case of B5, the “Bottom (best-fit)” value was found to be 9.18, the 50% effective concentration (EC50) turned out to be 3.15 nM and the “Top (best-fit)” value stood at 346.

Take B1: the “Bottom (best-fit)” value was 14, the EC50 is 0.81 nM and the “Top (best-fit)” value was 107.

Take B6: the “Bottom (best-fit)” value worked out at 13.8, the response was half-maximal at 0.37 nM (EC50) and the “Top (best-fit)” value is 89.9.

Consider B7, for which the “Bottom (best-fit)” value worked out at 12.9, a half-maximal effect (EC50) was put at 1.28 nM and the “Top (best-fit)” value was determined as 276.

For the molecule B8, the “Bottom (best-fit)” value worked out at 11, the EC50 came out at 0.96 nM and the “Top (best-fit)” value came to 263.

In the case of B2, the “Bottom (best-fit)” value was 16.2, it took 0.3 nM to reach a half-maximal effect (EC50) and the “Top (best-fit)” value is 98.7.

A further assay has as its target T3, cynomolgus TIGIT over-expressed on CHO-K1 cells (cynomolgus, UniProt A0A7N9I9V4 89-312).
T3 construct: whole, on cells; also called CHO-K1/cynomolgus TIGIT cells
Description: FACS, CHO-K1 cells over-expressing cynomolgus TIGIT. The protocol:
as §1
Take B1: the “Bottom (best-fit)” value amounted to 16.9, the 50% effective concentration (EC50) stood at 1.16 nM and the “Top (best-fit)” value is 410.

Turning to B6, the “Bottom (best-fit)” value was found to be 7.6, the 50% effective concentration (EC50) worked out at 18.5 nM and the “Top (best-fit)” value was found to be 53.8.

As for B2, the “Bottom (best-fit)” value was 7.5, a half-maximal response (EC50) required 8.38 nM and the “Top (best-fit)” value stood at 66.2.

Another assay deals with T2, Human TIGIT protein with HIS tag. Description: SPR Biacore T200; antibody Fc-captured, TIGIT-His analyte. How it is done:
Binding kinetics of mouse anti-human TIGIT monoclonal antibodies to human TIGIT were determined using a Surface Plasmon Resonance (SPR) biosensor, BIACORE® T200 (GE Healthcare; Little Chalfont, United Kingdom). […] Each mouse anti-human TIGIT monoclonal antibody was immobilized on the sensor chip through the Fc capture method. Human TIGIT protein with HIS tag was used as the analyte. The dissociation (kd) and association (kₐ) rate constants were obtained using the BIACORE® T200 evaluation software. The apparent equilibrium dissociation constants (KD) were calculated from the ratio of kd over kₐ.
Background: Surface plasmon resonance follows binding to a sensor surface in real time, without labels.
Molecule B3 registered a dissociation constant Kd of 14 nM, an off-rate constant (koff) of 0.0087 s⁻¹ and a kon of 640000 M⁻¹ s⁻¹.

Turning to B4, the Kd was found to be 18 nM, the koff was 1.2 s⁻¹ and the kon was 6.7e+07 M⁻¹ s⁻¹.

Turning to B5, the affinity, expressed as Kd, was 11 nM; the koff was determined as 0.0088 s⁻¹; the association rate constant (kon) was found to be 840000 M⁻¹ s⁻¹.

As to B1, the dissociation constant (Kd) turned out to be 0.51 nM, the dissociation rate constant (koff) is 0.00033 s⁻¹ and the kon was 650000 M⁻¹ s⁻¹.

As for B6, the Kd came out at 3 nM, the off-rate (koff) was found to be 0.0062 s⁻¹ and the association rate constant (kon) turned out to be 2.1e+06 M⁻¹ s⁻¹.

The molecule B7 showed a Kd of 2.6 nM, a koff of 0.0033 s⁻¹ and a kon of 1.3e+06 M⁻¹ s⁻¹.

As to B8, the Kd came out at 5.2 nM, the off-rate (koff) came to 0.0044 s⁻¹ and the on-rate constant (kon) turned out to be 860000 M⁻¹ s⁻¹.

In turn, B2 showed a Kd of 6.7 nM, a koff of 0.008 s⁻¹ and a kon of 1.2e+06 M⁻¹ s⁻¹.

In another assay the target is T1, human TIGIT over-expressed on cells. Description: competition FACS, CHO cells expressing human TIGIT; competitor PVR recombinant protein. How it is done:
The mixture was equilibrated for 30 minutes at room temperature, and washed three times with FACS buffer (PBS containing 1% BSA). PE/Cy5 Streptavidin secondary antibody was then added to the mixtures and incubated for 15 minutes at room temperature. Subsequently, the cells were washed with FACS buffer and analyzed by flow cytometry. Data was analyzed with PRISM™ (GraphPad Software, San Diego, Calif.) using non-linear regression, and IC₅₀ values were calculated (FIGS. 4A-4B and Table 6).
With B3, the “Bottom (best-fit)” value turned out to be 21.2, the IC50 worked out at 73.5 nM and the “Top (best-fit)” value came to 108.

In the case of B5, the “Bottom (best-fit)” value stood at 64.6, the half-maximal inhibitory concentration (IC50) was 1.6 nM and the “Top (best-fit)” value came out at 132.

As for B1, the “Bottom (best-fit)” value worked out at 12.9, the IC50 is 1.2 nM and the “Top (best-fit)” value was 66.5.

For the molecule B6, the “Bottom (best-fit)” value stood at 10.4, the half-maximal inhibitory concentration (IC50) was determined as 0.7 nM and the “Top (best-fit)” value is 73.8.

Take B7: the “Bottom (best-fit)” value amounted to 11.2, the half-maximal inhibitory concentration (IC50) came out at 0.9 nM and the “Top (best-fit)” value stood at 131.

B8: the “Bottom (best-fit)” value was found to be 19.6, the IC50 was 0.7 nM and the “Top (best-fit)” value came out at 113.

Turning to B2, the “Bottom (best-fit)” value turned out to be 8.8, the half-inhibitory concentration (IC50) came to 1.1 nM and the “Top (best-fit)” value is 69.7.
